Measured values: paper PMC9181698

B1: unnamed (parent)
chain 1: DKEWILQKIYEIMRLLDELGHAEASMRVSDLIYEF
chain 2: not shown

Variants of: B1
Details: with partner chain of the complex shown; 12 nM peptide; read off a plot

chain 1 S25A was tested. Which screen value did it give?
The screen value was 9%.

With chain 1 L31A as the variant, how does the screen value read?
Its screen value is 18%.

Which screen value does the source give for chain 1 I9A here?
Its screen value is 3%.

How did the screen value turn out when chain 1 V28A was run?
The screen value was 8.5%.

With chain 1 E34A as the variant, how does the screen value read?
Its screen value is 20%.

How did the screen value turn out when chain 1 M26A was run?
The screen value was 67%.

Which screen value does the source give for chain 1 Y10A here?
Its screen value is 18%.

chain 1 G20A was tested. Which screen value did it give?
The screen value was 66%.

How did the screen value turn out when chain 1 I32A was run?
The screen value was 46%.

With chain 1 K8A as the variant, how does the screen value read?
Its screen value is 19%.

How did the screen value turn out when chain 1 M13A was run?
The screen value was 92%.

For chain 1 L16A, which screen value is on record?
The screen value was 23%.

Which screen value does the source give for chain 1 L6A here?
Its screen value is 69%.

Which screen value does the source give for chain 1 D30A here?
The screen value was 96%.

For chain 1 F35A, which screen value is on record?
Its screen value is 23%.

For chain 1 R27A, which screen value is on record?
The screen value was 3%.

How did the screen value turn out when chain 1 E18A was run?
Its screen value is 1%.

Which screen value does the source give for chain 1 E3A here?
The screen value was 4.5%.

For chain 1 I12A, which screen value is on record?
Its screen value is 7%.

With chain 1 K2A as the variant, how does the screen value read?
Its screen value is 47%.

For chain 1 Y33A, which screen value is on record?
The screen value was 86%.

Which screen value does the source give for chain 1 D17A here?
The screen value was 14%.

For chain 1 R14A, which screen value is on record?
The screen value was 24%.

How did the screen value turn out when chain 1 S29A was run?
Its screen value is 49%.

For chain 1 Q7A, which screen value is on record?
Its screen value is 19%.

Which screen value does the source give for chain 1 L19A here?
Its screen value is 1.7%.

With chain 1 D1A as the variant, how does the screen value read?
The screen value was 4.5%.

How did the screen value turn out when chain 1 E23A was run?
Its screen value is 50%.

Which screen value does the source give for chain 1 W4A here?
The screen value was 3.7%.

chain 1 I5A was tested. Which screen value did it give?
Its screen value is 3%.

For chain 1 H21A, which screen value is on record?
Its screen value is 31%.

Which screen value does the source give for chain 1 L15A here?
Its screen value is 4.5%.

Which screen value does the source give for chain 1 E11A here?
The screen value was 26%.
